A short description of the data set: label from the status in PepcDB records.
With “MSEKREKQTKSKRRIWRGVTTATASLLTLSMSATLVIDGFRTDIDKFLGTQSTKMVTEDVSAEDYTFQSDYSSTTELLDSIEDLGERMNEEGSVLLKNENAALPLSKEETQKISLLGFSSYYPVQGGDFGSTLSENKGTDADTVDMLEAFESKGFEMNPTLKKMYQGLKEEFKSEAVLPWGVTTYYRATAPATTGVFTSLEPETATLDEAEPNWKKSMTDYNVMIVTLARAAGENANYTPGEDGVNPEQDLNQADPLGLSDTERAIIDEAVNAKKENNGKLIVMLNNASAMEIEEIKNNTGVDAILEVGLPGGYGFYGVADVLSGEVNPSGHLADTYAVDNSSSPAAQNYGNYEWTNADSAYSINSEIVEAEGIYTGYKYYETRYADTVLGQGNASDKTGSSNGKAWNYEDEVSYPFGYGLSYTTFSQTLDSLDVNLEDKTVTAKVTVKNTGDVAGKDVVQLYTSLPYTEYDKEHAVEKAAVQLLDYEKTGVLQPGESVTVEITADAQDMASWDSTCDNAAGTKGNWILDAGDYYFTVGNGSHEAVNNVLAAQGMTKANGMTDAGNAANVKKWTLDTFDSETFAYSKNGTAVENQLQDMDLNYYMPDTVTYLSRSDWKATWPKTYKDLTATDEMIEVMKNNLVEIKEQGNPDEVTFGEDNGLTLASLKGETDLTNEKWTDLIDQITLEEAMIRTGFGGTSTKSIVSIVSPEAVQNDGPNGFNSYTLGQYANTDTDSADPYVIDPDDKNLNYKFGTMSNETVIAQTFSKEMAAEYGAVTGNYSIWSNLPILWGAGTNLHRTPYNARNHEYYSEDAILTAYQAAAYIAAGKEYGCIIAPKHFAFNDTEINRSGIATFMTEQKARENELRGTQASVEDAQTLGMMTTFNRIGCTAGNAHYGLLMNILRKEWGFQGLMSEDFIQDANYSVLKEAVHCGVTMTCNTGDSNMEAVTAKWNYWTTEAVSKDASMMQDLKNVMMWQNYALANSNAMDGLNETSQIKDVRTWYDNALTATSAVLALLTLAAAAMYIRDAKRRKNS”, the protein production result is “failed”.

For “MSELAASLLSRVILPRPGEPLDVRKLYLEESTTNARRAHAPTRTSLQIGAESEVSFATYFNAFPASYWRRWTTCKSVVLRVQVTGAGRVDVYRTKATGARIFVEGHDFTGTEDQPAAVETEVVLQPFEDGGWVWFDITTDTAVTLHSGGWYATSPAPGTANIAVGIPTFNRPADCVNALRELTADPLVDQVIGAVIVPDQGERKVRDHPDFPAAAARLGSRLSIHDQPNLGGSGGYSRVMYEALKNTDCQQILFMDDDIRLEPDSILRVLAMHRFAKAPMLVGGQMLNLQEPSHLHIMGEVVDRSIFMWTAAPHAEYDHDFAEYPLNDNNSRSKLLHRRIDVDYNGWWTCMIPRQVAEELGQPLPLFIKWDDADYGLRAAEHGYPTVTLPGAAIWHMAWSDKDDAIDWQAYFHLRNRLVVAAMHWDGPKAQVIGLVRSHLKATLKHLACLEYSTVAIQNKAIDDFLAGPEHIFSILESALPQVHRIRKSYPDAVVLPAASELPPPLHKNKAMKPPVNPLVIGYRLARGIMHNLTAANPQHHRRPEFNVPTQDARWFLLCTVDGATVTTADGCGVVYRQRDRAKMFALLWQSLRRQRQLLKRFEEMRRIYRDALPTLSSKQKWETALLPAANQEPEHG”, the protein production result is recorded as “failed”.

As to “MSELILHHYPTSLFAEKARLMLGFKGVNWRSVTIPSIMPKPDLTALTGGYRKTPVLQIGADIYCDTALMARRLEQEKASPAFYPQGQEFAVAGLAAWADSVLFLHAVSLVFQPESMAVRFAKVPPDAAKAFIADRSMLFNGGTASRPPVEQVKHQWPTFMSRLESQLSHGGDFLFGAPSIADFSVAHTLWFLKQTPVTAPFVDDYPSVSVWLDRVLGFGHGSLSDLSSAAAIEIASNATPAPLPDETFIDPNGFKAGDKVAIAAVDYGVEAVEGELMFTGREELILRREDNRAGVVHVHFPRLGFRVEKR”, the protein production result is on record as “not failed”.

As to “MSELSTEAPAQSAKPTIYFDGVSSRRRQVTLTLGDALEIVEEGATPVRWAYADIRRADSPAGILRLASTFAPPLARLEIRDTALAADVSVRCMRLDEHQTTRRGIAKIVGWSVAAAVSIVCVVLFGVPLAADRLAPLVPKPIERRIGDASEVQVKTIFGGRTCEDPAGKAAFTKLVNRLRDAAGLDDDSMTAGVLPTSVPNAFALPGGKVFLLQGLLDRAESPDELAGILAHELGHLKHHDNMRGLIYNGGTSFLIGLLFGDVTGSSAVIFASRSVVEASYSREAETGADTFAIDIMHALGRSPRPSAELMFRITGKEGGSGFTILSSHPLTEDRLARMTKEDRPVSGPPLLTDAEWRALKGICGSGKI”, the protein production entry is “failed”.

As for “MSELVRKLSGTAPNPAFPRGAVDTQMHMYLPGYPALPGGPGLPPGALPGPEDYRRLMQWLGIDRVIITQGNAHQRDNGNTLACVAEMGEAAHAVVIIDATTTEKDMEKLTAAGTVGARIMDLPGGAVNLSELDAVDERAHAADWMVAVQFDGNGLLDHLPRLQKIRSRWVFDHHGKFFKGIRTDGPEMAALLKLIDRGNLWFKFAGVYESSRKSWPYADVAAFSRVIAAHAPERIVWGTNWPHNSVRETAAYPDDARLAELTLGWLPDEAARHRALVENPEALFKLSPVKAT”, the protein production entry is “failed”.

In the case of “MSENLAITIATIVVKLFAIIDPFSVLPFLLAIYEEANRDSQEKVSWNYMINKITIAILILLTLFSLIGRPLLDFLGLSAQALQIAGGVLLVYLGIDTMGGFQQLRFIRSLREAIVTPIATPLLVGPGTMTALISLSVDYNPLELVISSGIVTLLVYLSLLSGPYLVKILGQTGTVAAGRFTAIIIAAFGVQLILSGISQLNFK”, the protein production result is “failed”.

On to “MSEPLHALARQLEQAIRASEPFQQLKRAYEDVRRDETAYRMFANVRDIQLRLHEKQMRGAAILPDEIEQAQKAMALAQQNEKLARLMALEQQMSITIAEVQQIAMKPLEELHRSFMEGR”, for which the protein production result is recorded as “not failed”.

As for “MSEPLLHLTERSLWDAARDRGTYEMATRGRTLQEEGFIHCSLRHQLPGVAALLYGSRAGSDELVVLVVDAERLAAPVRYEAVGPGGEEFPHVYGPIPVSAVVDVEVWTGGEAASALEHHHHHH”, the protein production entry is given as “not failed”.

On to “MSEPVIKSLLDTDMYKITMHAAVFTNFPDVTVTYKYTNRSSQLTFNKEAINWLKEQFSYLGNLRFTEEEIEYLKQEIPYLPSAYIKYISSSNYKLHPEEQISFTSEEIEGKPTHYKLKILVSGSWKDTILYEIPLLSLISEAYFKFVDIDWDYENQLEQAEKKAETLFDNGIRFSEFGTRRRRSLKAQDLIMQGIMKAVNGNPDRNKSLLLGTSNILFAKKYGVKPIGTVAHEWVMGVASISEDYLHANKNAMDCWINTFGAKNAGLALTDTFGTDDFLKSFRPPYSDAYVGVRQDSGDPVEYTKKISHHYHDVLKLPKFSKIICYSDSLNVEKAITYSHAAKENGMLATFGIGTNFTNDFRKKSEPQVKSEPLNIVIKLLEVNGNHAIKISDNLGKNMGDPATVKRVKEELGYTERSWSGDNEAHRWTZ”, for which the protein production entry is “not failed”.

On to “MSEQQHVRADGTVTFLPHRLNRHPVVVRGLTADELWICCGLSGAAGLLVGAPLSWVFRTIAIAPTFVVLGVALGVFIGGGILRRLKRGRPDTWLYRQLQWRIATGHPLMAGWVGGHVLISRSGFWSTRRSMR”, for which the protein production entry is given as “failed”.

Turning to “MSERRDAILKASATAIAQRGIRGLRVNDVAEVAGVSPGLLYYHFKDRIGLLEAALNYINDRARAYRSEGEGSGDSARDRLTRSLLGEIQDRPEVVENSLAWNELRASAVYEEALRDPLARTTAAWVSEIADAIVQAQATGEISRSLDPQPTAVTMTALVEGLSGRWLCKEISTEDARSHLLGAIDVVMSEPTHHTADTPVTPTPKEYR”, the protein production result is given as “not failed”.

Turning to “MSERVSEEPGLDKGDRAEECELDDPELKAIRMRVREMEEEAERLKGLSGQDKSIGVSTRPCMQTTHSKMTAGAYTEGPPQPLSAEEKKEIDKRSVYVGNVDYGSTAQDLEAHFSSCGSINRITILCDKFSGHPKGYAYIEFAERNSVDAAVAMDETVFRGRTIKVLPKRTNMPGISSTDRGGFRGRPRGNRGNYQRGQRPRGRPFRGRGRPGPLNNPY”, the protein production entry is given as “not failed”.

Turning to “MSESNRQRATGLVQAYYEAFNRGDWDAMLAFLAEDVAHDLNQGPREIGRAAFASFLQRMNDSYREQLRDIVVTANDEGTRVGAEYVVHGVYHTTDEGLPDANGQTYVLPGGAFFDVRDGQITRVTNYYNLQEWIAQVSR”, the protein production entry was “not failed”.

For “MSESTAPSDTVLLRGGEVHSPADPFATAMVVERGQVAWVGSEGAADAFSAGVDEVVDLEGALVTPAFTDAHVHTTSTGLALTGLDLSGAPSLEAALALVRDFAAARPDDRVLLGHGWDTARWPGGRPPTRAELDEAADGRPLYLSRIDVHSAVVSTALLDLVPGITGRAGYLDGPLTRDAHHAVRGAALGAVSPAQRTEAQRAALAHAASLGIGSVHECAGPEISSEDDFTGLLRLAAEETGPRVVGYWAEWGEEGIDRARALGAVGAAGDLFVDGALGSHTACLHQPYSDAGHTGTAYLDDDAVAAHVIACTEAGLQAGFHAIGDAAVTSVVEGVRAAAEKVGLARVRAARHRVEHAEMLTPETIAAFAELGLTASVQPAFDALWGGADGMYAQRLGAERARTLNPFAALLRAGVPLAFGSDSPVTPLDPWGTVRAAAFHRTPEHRVSVRAAFTAHTRGGWRAIGRDDAGVLVPGAPADYAVWRTEELVVQAPDDRVARWSTDPRSGTPGLPDLTPGGDLPVCLRTVVGGRTVFVRPNE”, the protein production result is given as “failed”.

Regarding “MSETDTAWIETALTSARPQAVGALLRYFRDLDTAEEAFQNACLRALKTWPQNGPPRDPAAWLIMVGRNVAIDEVRRARKQQPLPEDDQAISDLDDAEGALAERLDGSHYRDDILRLMFICCHPQLPATQQIALALRIVSGLTVKQIARAFLVSEAAMEQRITRAKAKVAEAGTPFETPGPIERSERLAGVAAMIYLIFNEGYSASGDTAEIRKPLCEEAIRLARLLLRLFQSEPEIMGLAALLLLQHARSAARFADDGSLILLEDQDRSLWNGSMIAEGLALIDKAMRHRRSGPYQIQAAIAALHARAATPEETDWAQIDLLYGALELAQPSPVVTLNRAVAVSKVRGPQAALDLIEPLAPKLGNYFHFHGVRGAFLMQLGRNDEARIAFDRAIALANTSAEAAHIRMHIDRLIRDSQPKSSNGSARQGAKAK”, the protein production entry was “failed”.

For the sequence “MSEVHTTIIDLDAGAVFSGTPSGRIIKGFDKPCAHTPNIDPDYVFHECSRDIVVWLMDSSDPLYVFGPTGSGKTSAIKQLAARLNYPVFDVTGHGRLEFPDLVGHLSVRDGSMEFQYGPLALAMRHGGILLLNEIDLLEPATATGFNGILDGEPLCIPENGGEIITPHPMFRFAATANTNGGSDDTGLYQGTLRQNLAFLDRFWLCEMPYPAPEAEKALLERRAPMLPDDIRTRMVDYANEVRRLFMGESGTTYGHSIEVTFSTRTLLRWADLTVRFQPLARQGIQPLTYALDRALGFKASKDTRTTLHELAQRLFPQHAATGE”, the protein production entry was “failed”.

As for “MSEVTKNSLEKILPQLKCHFTWNLFKEDSVSRDLEDRVCNQIEFLNTEFKATMYNLLAYIKHLDGNNEAALECLRQAEELIQQEHADQAEIRSLVTWGNYAWVYYHLGRLSDAQIYVDKVKQTCKKFSNPYSIEYSELDCEEGWTQLKCGRNERAKVCFEKALEEKPNNPEFSSGLAIAMYHLDNHPEKQFSTDVLKQAIELSPDNQYVKVLLGLKLQKMNKEAEGEQFVEEALEKSPCQTDVLRSAAKFYRRKGDLDKAIELFQRVLESTPNNGYLYHQIGCCYKAKVRQMQNTGESEASGNKEMIEALKQYAMDYSNKALEKGLNPLNAYSDLAEFLETECYQTPFNKEVPDAEKQQSHQRYCNLQKYNGKSEDTAVQHGLEGLSISKKSTDKEEIKDQPQNVSENLLPQNAPNYWYLQGLIHKQNGDLLQAAKCYEKELGRLLRDAPSGIGSIFLSASELEDGSEEMGQGAVSSSPRELLSNSEQLN”, the protein production entry is recorded as “failed”.

For the sequence “MSEVVKKFMYLNRKAPYGTIYAWEALEVVLIGAAFDQDVCVLFLDDGVYQLTRGQDTKGIGMKNFSPTYRTLGDYEVRRIYVDRDSLEARGLTQDDLVEIAFEDMETEEEFDNIVEVIDSARVSELMNESDAVFSF”, the protein production result was “not failed”.
